We go through six molecules from PMC8964759, “Exploring a blue-light-sensing transcription factor to double the peak productivity of oil in Nannochloropsis oceanica”.

T1: MBP-NobZIP77 (Nannochloropsis oceanica, UniProt A0A8F2IEU3 1-466)
T1 sequence: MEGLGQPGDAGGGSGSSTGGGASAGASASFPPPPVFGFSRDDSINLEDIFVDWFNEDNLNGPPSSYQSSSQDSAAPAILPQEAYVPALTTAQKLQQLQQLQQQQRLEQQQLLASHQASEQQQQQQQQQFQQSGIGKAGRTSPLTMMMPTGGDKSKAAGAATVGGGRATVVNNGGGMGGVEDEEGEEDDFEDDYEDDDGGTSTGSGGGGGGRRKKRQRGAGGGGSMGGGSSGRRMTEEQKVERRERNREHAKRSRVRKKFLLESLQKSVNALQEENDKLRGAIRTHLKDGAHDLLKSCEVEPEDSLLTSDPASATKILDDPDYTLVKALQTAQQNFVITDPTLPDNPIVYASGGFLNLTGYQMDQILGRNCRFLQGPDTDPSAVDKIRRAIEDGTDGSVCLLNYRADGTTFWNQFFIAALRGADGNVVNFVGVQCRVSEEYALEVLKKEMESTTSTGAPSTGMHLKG

B1: g3857 (TAG-lipase) promoter probe (dsDNA)
DNA 1: TGGGCTCGGACGCGACGCGGGCTTTGGGCTCGGACGCGACGCGGGCTT
DNA 2: AAGCCCGCGTCGCGTCCGAGCCCAAAGCCCGCGTCGCGTCCGAGCCCA
B2: g10411 (lipase; also written g10041) promoter probe (dsDNA)
DNA 1: TCCAACACGTCGGCCTCCCAAACGCAATTTTGAGGCATGGACGTGGAAAGGG
DNA 2: CCCTTTCCACGTCCATGCCTCAAAATTGCGTTTGGGAGGCCGACGTGTTGGA
B3: g2171 (PAP) promoter probe (dsDNA)
DNA 1: ACCGCTCCTTACGTGGTTAACATCACCGCTCCTTACGTGGTTAACATC
DNA 2: GATGTTAACCACGTAAGGAGCGGTGATGTTAACCACGTAAGGAGCGGT
B4: g5641 (FAE) promoter probe (dsDNA)
DNA 1: TGGATTGATGGACGTGGAAGCAGCTGGATTGATGGACGTGGAAGCAGC
DNA 2: GCTGCTTCCACGTCCATCAATCCAGCTGCTTCCACGTCCATCAATCCA
B5: g9477 (actin) control probe (dsDNA)
DNA 1: TTCGATAAATGGGGCCGATAAGTGAGGGAAGATGATTTGAGTAAAGTA
DNA 2: TACTTTACTCAAATCATCTTCCCTCACTTATCGGCCCCATTTATCGAA
B6: g4867 (hsp70) control probe (dsDNA)
DNA 1: TGTGGGGCCTCAGATAAAGGTGCGGCACGTAGGGAGAGACATTG
DNA 2: CAATGTCTCTCCCTACGTGCCGCACCTTTATCTGAGGCCCCACA

One data set has as its target T1, MBP-NobZIP77. Briefly: EMSA; shift reduced by 100-fold unlabeled promoter DNA; LightShift Chemiluminescent EMSA kit binding buffer (composition, salt and pH not stated), 30 min; light series: 5 nM probe, 25 °C, 60 min, NobZIP77 1:2 dilutions from 24 mM (so in the source); 6% native PAGE at 4 °C. Particulars: protein: recombinant; tags: MBP (pMAL-p4X); chain copies: 2; label: 5' biotin; blunt.
On to B1, for which the binding result is reported as “binds”.
Still for that read-out and setting: with B2 the entry was “binds”.

A further data set concerns the target T1, MBP-NobZIP77. Nature of the data set: EMSA; LightShift Chemiluminescent EMSA kit binding buffer (composition, salt and pH not stated), 30 min; light series: 5 nM probe, 25 °C, 60 min, NobZIP77 1:2 dilutions from 24 mM (so in the source); 6% native PAGE at 4 °C. Particulars: protein: recombinant; tags: MBP (pMAL-p4X); chain copies: 2; label: 5' biotin; blunt.
For the molecule B3, the binding result is “binds”.
Same read-out and setting: with B4 the entry was “binds”.
Still for that read-out and setting: under B5 stands “no binding”.
Same read-out and setting: with B6 the entry was “no binding”.
